The text below walks through data of article PMC10784507.

For this assay, the target named is holo-SDHA-SDHAF2 complex (preformed from purified proteins) (human) (UniProt P31040). The assay can be described thus: pull-down; preformed holo-SDHA-SDHAF2 (2 µM, His6 on SDHA) incubated with SDHAF4 or its variants, with or without 5 mM fumarate, 30 min 25 °C, then held on Ni-NTA agarose; SDS-PAGE with Coomassie, western blot for the truncated variants. A general note: Immunoblotting shows a protein as a band on a membrane.
holo-SDHA-SDHAF2 complex (preformed from purified proteins) (human), sequence (P31040 43-664, chain 1 of 2): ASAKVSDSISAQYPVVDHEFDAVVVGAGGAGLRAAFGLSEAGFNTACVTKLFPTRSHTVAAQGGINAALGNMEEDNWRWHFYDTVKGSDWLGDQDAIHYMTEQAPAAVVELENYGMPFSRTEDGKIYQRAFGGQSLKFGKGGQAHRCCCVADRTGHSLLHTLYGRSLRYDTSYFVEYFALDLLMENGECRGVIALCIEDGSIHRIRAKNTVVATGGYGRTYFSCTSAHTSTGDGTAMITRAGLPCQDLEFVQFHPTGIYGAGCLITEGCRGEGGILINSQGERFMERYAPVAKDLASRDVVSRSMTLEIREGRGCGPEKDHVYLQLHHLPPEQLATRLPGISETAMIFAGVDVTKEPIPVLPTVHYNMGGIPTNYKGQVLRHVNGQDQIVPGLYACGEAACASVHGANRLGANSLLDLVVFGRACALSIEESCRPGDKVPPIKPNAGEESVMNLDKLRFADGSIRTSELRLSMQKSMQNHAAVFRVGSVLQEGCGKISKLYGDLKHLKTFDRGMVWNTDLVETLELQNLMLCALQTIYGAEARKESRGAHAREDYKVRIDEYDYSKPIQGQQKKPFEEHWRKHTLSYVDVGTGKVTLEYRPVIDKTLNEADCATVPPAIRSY
holo-SDHA-SDHAF2 complex (preformed from purified proteins) (human), sequence (Q9NX18 37-166, chain 2 of 2, further chain): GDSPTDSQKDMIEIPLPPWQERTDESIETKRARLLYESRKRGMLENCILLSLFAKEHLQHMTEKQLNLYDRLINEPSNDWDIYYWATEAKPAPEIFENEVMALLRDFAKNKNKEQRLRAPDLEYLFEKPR

SDHAF4^E92N, sequence (Q5VUM1 21-108 E92N, stated change not applied): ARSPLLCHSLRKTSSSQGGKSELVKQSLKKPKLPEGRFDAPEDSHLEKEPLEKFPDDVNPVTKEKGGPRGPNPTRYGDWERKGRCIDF

“SDHAF4^E92N (from UniProt Q5VUM1 21-108) (natural protein)” registered a percent of SDHAF2 displaced from the SDHA-AF2 complex of 40 to 50%.
